In publication PMC13311836, “Clinically observed RASA1 missense mutants exhibit diverse RasGAP protein behaviors in vitro” (The Journal of Biological Chemistry, 2026):
Residue numbers refer to the chain shown, from its start. [ ]: non-standard residue; d: D form. pY = N[C@@H](Cc1ccc(OP(=O)(O)O)cc1)C(=O)O

How the values were obtained:
[1] = target: T1, RasGAP SH2-SH3-SH2 construct (residues 174 to 444), R194C (human, UniProt P20936 174-444, R194C | C236S | C261S | C372S | C402S); assay: ITC; replicate, Figure S7 panel E
T1 sequence: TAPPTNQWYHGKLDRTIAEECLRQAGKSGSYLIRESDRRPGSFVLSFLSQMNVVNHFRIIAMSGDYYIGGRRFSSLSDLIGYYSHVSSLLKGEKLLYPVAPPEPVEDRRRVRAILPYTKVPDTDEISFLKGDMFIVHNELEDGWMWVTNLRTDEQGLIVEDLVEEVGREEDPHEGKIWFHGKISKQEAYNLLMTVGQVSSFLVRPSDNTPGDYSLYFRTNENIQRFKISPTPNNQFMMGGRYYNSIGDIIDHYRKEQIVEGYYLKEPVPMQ

[2] = target: T2, RasGAP SH2-SH3-SH2 construct (residues 174 to 444), WT (human, UniProt P20936 174-444, C236S | C261S | C372S | C402S); assay: ITC; replicate, Figure S7 panel A
T2 sequence: T1 sequence with C21R

[3] = target: T1, RasGAP SH2-SH3-SH2 construct (residues …); assay: ITC; replicate, Figure S7 panel D
[4] = target: T3, RasGAP SH2-SH3-SH2 construct (residues 174 to 444), R194C (human, UniProt P20936 174-444, R194C | C236S | C261S | C372S | C402S); assay: ITC; about 25 μM peptide in the syringe titrated into about 5 μM RasGAP SH2-SH3-SH2 in the cell; 25 °C; 250 mM NaCl, 20 mM Tris pH 8, 1 mM TCEP; Independent model; settings: both partners purified
T3 construct: human RasGAP (p120RasGAP, RASA1), UniProt P20936, residues 174-444, with C236S, C261S, C372S, C402S and the cancer-associated N-SH2 mutation R194C; also called p120RasGAP SH2-SH3-SH2 R194C; source: E. coli Rosetta (DE3), purified (Ni-NTA, TEV cleavage, anion exchange, SEC); not shown: His6, N-terminal, cleaved
T3 sequence (looked up): T1 sequence

[5] = target: T4, RasGAP SH2-SH3-SH2 construct (residues 174 to 444), WT (human, UniProt P20936 174-444, C236S | C261S | C372S | C402S); assay: as above; settings: both partners purified
T4 construct: also called p120RasGAP SH2-SH3-SH2; RASA1; source: E. coli Rosetta (DE3), purified (Ni-NTA, TEV cleavage, anion exchange, SEC); not shown: His6, N-terminal, cleaved
T4 sequence (looked up): T1 sequence with C21R

[6] = target: T5, RasGAP SH2-SH3-SH2 construct (residues 174 to 444), R427Q (human, UniProt P20936 174-444, C236S | C261S | C372S | C402S | R427Q); assay: as above; settings: both partners purified
T5 construct: human RasGAP (p120RasGAP, RASA1), UniProt P20936, residues 174-444, with C236S, C261S, C372S, C402S and the cancer-associated C-SH2 mutation R427Q; also called p120RasGAP SH2-SH3-SH2 R427Q; source: E. coli Rosetta (DE3), purified (Ni-NTA, TEV cleavage, anion exchange, SEC); not shown: His6, N-terminal, cleaved
T5 sequence (looked up): T1 sequence with C21R, R254Q

[7] = target: T6, RasGAP SH2-SH3-SH2 construct (residues 174 to 444), R427Q (human, UniProt P20936 174-444, C236S | C261S | C372S | C402S | R427Q); assay: ITC; replicate, Figure S7 panel G
T6 sequence: T1 sequence with C21R, R254Q

[8] = target: T2, RasGAP SH2-SH3-SH2 construct (residues …); assay: ITC; replicate, Figure S7 panel B
[9] = target: T1, RasGAP SH2-SH3-SH2 construct (residues …); assay: ITC; average
[10] = target: T6, RasGAP SH2-SH3-SH2 construct (residues …); assay: ITC; average
[11] = target: T2, RasGAP SH2-SH3-SH2 construct (residues …); assay: ITC; average
[12] = target: T1, RasGAP SH2-SH3-SH2 construct (residues …); assay: ITC; replicate, Figure S7 panel C
[13] = target: T6, RasGAP SH2-SH3-SH2 construct (residues …); assay: ITC; replicate, Figure S7 panel F

Kd [1]: 1.2 nM | Kd [2]: 6.49 nM | Kd [3]: 7.23 nM | binding result [4]: binds | binding result [5]: binds | binding result [6]: binds | Kd [7]: 2.08 nM | Kd [8]: 3.59 nM | Kd [9]: 4.03 nM | Kd [10]: 5.11 nM | Kd [11]: 5.04 nM | Kd [12]: 3.65 nM | Kd [13]: 8.14 nM
B1: p190RhoGAP phosphopeptide, residues 1083 to 1111 (pY1087, pY1105) (peptide)
peptide: Ac-DPSD[pY]AEPMDAVVKPRNEEENI[pY]SVPHDS-NH2
notes: p190RhoGAP (ARHGAP35), UniProt Q9NRY4, residues 1083-1111, 29 amino acids; also called p190RhoGAP peptide; ARHGAP35 peptide; source: synthetic peptide, bought: GenScript
